The results in this text go back to paper PMC5356278, “Identification of residues important for the activity of aldehyde-deformylating oxygenase through investigation into the structure-activity relationship” (BMC Biotechnology, 2017).

The term Km denotes the substrate concentration at which the rate is half of its maximum. A word on the kcat: it is the maximal rate divided by the concentration of active sites. What is called kcat/Km is the second-order rate constant that governs catalysis at low substrate concentration.

B1: cADO-1593 (1593) (Synechococcus elongatus PCC 7942 = FACHB-805; L146T) (protein)
chain: MPQLEASLELDFQSESYKDAYSRINAIVIEGEQEAFDNYNRLAEMLPDQRDELHKLAKMEQRHMKGFMACGKNLSVTPDMGFAQKFFERLHENFKAAAAEGKVVTCLLIQSLIIECFAIAAYNIYIPVADAFARKITEGVVRDEYTHRNFGEEWLKANFDASKAELEEANRQNLPLVWLMLNEVADDARELGMERESLVEDFMIAYGEALENIGFTTREIMRMSAYGLAAV
notes: codon-optimised synthetic gene, E. coli BL21(DE3), nickel column; apo enzyme reconstituted with stoichiometric ferrous iron (diferrous form)
B2: cADO-1593 (1593) (Synechococcus elongatus PCC 7942 = FACHB-805; F150Y) (protein)
chain: MPQLEASLELDFQSESYKDAYSRINAIVIEGEQEAFDNYNRLAEMLPDQRDELHKLAKMEQRHMKGFMACGKNLSVTPDMGFAQKFFERLHENFKAAAAEGKVVTCLLIQSLIIECFAIAAYNIYIPVADAFARKITEGVVRDEYLHRNYGEEWLKANFDASKAELEEANRQNLPLVWLMLNEVADDARELGMERESLVEDFMIAYGEALENIGFTTREIMRMSAYGLAAV
notes: as for B1
B3: cADO-1593 (1593) (Synechococcus elongatus PCC 7942 = FACHB-805; W178R) (protein)
chain: MPQLEASLELDFQSESYKDAYSRINAIVIEGEQEAFDNYNRLAEMLPDQRDELHKLAKMEQRHMKGFMACGKNLSVTPDMGFAQKFFERLHENFKAAAAEGKVVTCLLIQSLIIECFAIAAYNIYIPVADAFARKITEGVVRDEYLHRNFGEEWLKANFDASKAELEEANRQNLPLVRLMLNEVADDARELGMERESLVEDFMIAYGEALENIGFTTREIMRMSAYGLAAV
notes: as for B1
B4: cADO-1593 (1593) (Synechococcus elongatus PCC 7942 = FACHB-805; F150Y/Q49H) (protein)
chain: MPQLEASLELDFQSESYKDAYSRINAIVIEGEQEAFDNYNRLAEMLPDHRDELHKLAKMEQRHMKGFMACGKNLSVTPDMGFAQKFFERLHENFKAAAAEGKVVTCLLIQSLIIECFAIAAYNIYIPVADAFARKITEGVVRDEYLHRNYGEEWLKANFDASKAELEEANRQNLPLVWLMLNEVADDARELGMERESLVEDFMIAYGEALENIGFTTREIMRMSAYGLAAV
notes: as for B1
B5: cADO-1593 (1593) (Synechococcus elongatus PCC 7942 = FACHB-805; F150Y/N123H/Q49H) (protein)
chain: MPQLEASLELDFQSESYKDAYSRINAIVIEGEQEAFDNYNRLAEMLPDHRDELHKLAKMEQRHMKGFMACGKNLSVTPDMGFAQKFFERLHENFKAAAAEGKVVTCLLIQSLIIECFAIAAYHIYIPVADAFARKITEGVVRDEYLHRNYGEEWLKANFDASKAELEEANRQNLPLVWLMLNEVADDARELGMERESLVEDFMIAYGEALENIGFTTREIMRMSAYGLAAV
notes: as for B1
B6: cADO-sll0208 (sll0208) (Synechocystis sp. PCC 6803 substr. Kazusa; L148R) (protein)
chain: MPELAVRTEFDYSSEIYKDAYSRINAIVIEGEQEAYSNYLQMAELLPEDKEELTRLAKMENRHKKGFQACGNNLQVNPDMPYAQEFFAGLHGNFQHAFSEGKVVTCLLIQALIIEAFAIAAYNIYIPVADDFARKITEGVVKDEYTHRNYGEEWLKANFATAKEELEQANKENLPLVWKMLNQVQGDAKVLGMEKEALVEDFMISYGEALSNIGFSTREIMRMSSYGLAGV
notes: full gene in pET-28a(+) (NdeI/XhoI), E. coli BL21(DE3), nickel column; apo enzyme reconstituted with stoichiometric ferrous iron (diferrous form)
B7: cADO-sll0208 (sll0208) (Synechocystis sp. PCC 6803 substr. Kazusa) (protein)
chain: MPELAVRTEFDYSSEIYKDAYSRINAIVIEGEQEAYSNYLQMAELLPEDKEELTRLAKMENRHKKGFQACGNNLQVNPDMPYAQEFFAGLHGNFQHAFSEGKVVTCLLIQALIIEAFAIAAYNIYIPVADDFARKITEGVVKDEYTHLNYGEEWLKANFATAKEELEQANKENLPLVWKMLNQVQGDAKVLGMEKEALVEDFMISYGEALSNIGFSTREIMRMSSYGLAGV
notes: as for B6
B8: cADO-sll0208 (sll0208) (Synechocystis sp. PCC 6803 substr. Kazusa; D49H/N123H) (protein)
chain: MPELAVRTEFDYSSEIYKDAYSRINAIVIEGEQEAYSNYLQMAELLPEHKEELTRLAKMENRHKKGFQACGNNLQVNPDMPYAQEFFAGLHGNFQHAFSEGKVVTCLLIQALIIEAFAIAAYHIYIPVADDFARKITEGVVKDEYTHLNYGEEWLKANFATAKEELEQANKENLPLVWKMLNQVQGDAKVLGMEKEALVEDFMISYGEALSNIGFSTREIMRMSSYGLAGV
notes: as for B6

Substrate in the first data set: CCCCCCC=O
Briefly: purified protein. The format is biochemical, Synechococcus elongatus. The note with it: NADH 750 uM, PMS 75 uM, catalase 1 mg/ml, ferrous ammonium sulfate 80 uM, 100 mM HEPES pH 7.2, 100 mM KCl.
On to B1, for which the Km came to 340 ± 80 µM, the kcat was 0.0157 ± 0.00133 s⁻¹ and the kcat/Km is 46 ± 5 M⁻¹ s⁻¹.
With B2, the Km is 200 ± 40 µM, the kcat was determined as 0.0125 ± 0.000667 s⁻¹ and the kcat/Km was found to be 62.5 ± 6.67 M⁻¹ s⁻¹.
With B3, the Km amounted to 340 ± 80 µM, the kcat turned out to be 0.0302 ± 0.0025 s⁻¹ and the kcat/Km amounted to 88.7 ± 6.67 M⁻¹ s⁻¹.
For the protein B4, the Km came to 330 ± 50 µM, the kcat was determined as 0.0145 ± 0.000667 s⁻¹ and the kcat/Km was 44 ± 3.33 M⁻¹ s⁻¹.
Consider B5, for which the Km was 350 ± 20 µM, the kcat came to 0.0173 ± 0.000333 s⁻¹ and the specificity constant (kcat/Km) is 49.5 ± 5 M⁻¹ s⁻¹.

Substrate in a further data set: CCCCCCC=O
Briefly: purified protein. It counts as biochemical, Synechocystis sp. PCC 6803. Conditions: NADH 750 uM, PMS 75 uM, catalase 1 mg/ml, ferrous ammonium sulfate 80 uM, 100 mM HEPES pH 7.2, 100 mM KCl. This is another data set of the same source.
As to B6, the Km is 320 ± 80 µM, the kcat stood at 0.0152 ± 0.00133 s⁻¹ and the kcat/Km was determined as 47.3 ± 5 M⁻¹ s⁻¹.
For the protein B7, the Km amounted to 350 ± 70 µM, the kcat amounted to 0.00983 ± 0.000667 s⁻¹ and the kcat/Km came out at 28.2 ± 3.33 M⁻¹ s⁻¹.
As to B8, the Km turned out to be 380 ± 80 µM, the kcat turned out to be 0.0138 ± 0.00133 s⁻¹ and the kcat/Km was determined as 36.3 ± 3.33 M⁻¹ s⁻¹.
